For six molecules, Ki results are on record in patent US20120077957A1, “Lactam-Bridged Melanocortin Receptor-Specific Peptides” (PALATIN TECHNOLOGIES, INC., priority 2009, published 2012).

Bridge positions count the residues as written; N and C are the ends. Square brackets hold non-standard residues; d marks the D form. Orn = NCCC[C@H](N)C(=O)O; Dab = NCC[C@H](N)C(=O)O

As a reminder, the Ki is a dissociation constant, usually derived from enzyme kinetics or from competition with a known ligand.

This test concerns the target human melanocortin-4 receptor (recombinant hMC4-R) (human), P32245. The experiment in a line: competition with labelled NDP-α-MSH ([I125] or Eu), hMC4-R HEK-293 membranes. As to conditions: remark: other sources report otherwise.

Sequence of human melanocortin-4 receptor (recombinant hMC4-R) (human), P32245 (P32245 whole entry): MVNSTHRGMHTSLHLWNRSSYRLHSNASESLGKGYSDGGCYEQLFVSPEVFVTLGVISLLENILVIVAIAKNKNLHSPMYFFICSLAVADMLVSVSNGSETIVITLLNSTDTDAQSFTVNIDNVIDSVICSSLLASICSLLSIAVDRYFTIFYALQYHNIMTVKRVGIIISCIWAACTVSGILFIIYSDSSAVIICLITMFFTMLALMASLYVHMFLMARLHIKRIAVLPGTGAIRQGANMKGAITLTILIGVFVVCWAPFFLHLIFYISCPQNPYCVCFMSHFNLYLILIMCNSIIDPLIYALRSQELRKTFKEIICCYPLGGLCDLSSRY

Ac-RD[Orn](Ac)[dF]RWK-NH2 (lactam 2-7) [Asp...Lys analog of peptide No. 33: Ac-Arg-cyclo(Asp-Orn(Acetyl)-D-Phe-Arg-Trp-Lys)-NH2]: the inhibitory constant (Ki) stood at 573 nM.

Take Ac-RD[Orn][dF]RWK-OH (lactam 2-7) [Asp...Lys analog of peptide No. 7: Ac-Arg-cyclo(Asp-Orn-D-Phe-Arg-Trp-Lys)-OH]: the Ki amounted to 18 nM. Under Ac-RD[Dab][dF]RWK-NH2 (lactam 2-7) [Asp...Lys analog of peptides No. 6 and No. 43: Ac-Arg-cyclo(Asp-Dab-D-Phe-Arg-Trp-Lys)-NH2] stands 4 nM.

B1: Asp...Lys analog of peptide No. 18: Ac-Arg-cyclo(Asp-Dab(Acetyl)-D-Phe-Arg-Trp-Lys)-NH2 (peptide)
peptide: Ac-RD[Dab](Ac)[dF]RWK-NH2
modifications: lactam 2-7
SMILES: CC(=O)NCC[C@@H]1NC(=O)[C@@H](NC(=O)[C@H](CCCNC(=N)N)NC(C)=O)CC(=O)NCCCC[C@@H](C(N)=O)NC(=O)[C@H](Cc2c[nH]c3ccccc23)NC(=O)[C@H](CCCNC(=N)N)NC(=O)[C@@H](Cc2ccccc2)NC1=O
Turning to B1, the Ki turned out to be 33 nM. The figure for Ac-RD[Dab][dF]RWK-OH (lactam 2-7) [Asp...Lys analog of peptides No. 5 and No. 42: Ac-Arg-cyclo(Asp-Dab-D-Phe-Arg-Trp-Lys)-OH] is 56 nM. The figure for Ac-RD[Orn][dF]RWK-NH2 (lactam 2-7) [Asp...Lys analog of peptide No. 8: Ac-Arg-cyclo(Asp-Orn-D-Phe-Arg-Trp-Lys)-NH2] is 7 nM.
